The values below come from patent US20240368233A1 (University of Washington, published 2024).

A word on the Kd: it is the equilibrium constant for the complex coming apart. The koff is a measure of how fast the partners let go of each other. Low values mean a long-lived complex, high ones a short-lived complex. In general, kon refers to the second-order rate constant of association.

One series concerns the target T1, 284B.
T1 construct: also called LHD284 B; LHD284 chainB
T1 chain: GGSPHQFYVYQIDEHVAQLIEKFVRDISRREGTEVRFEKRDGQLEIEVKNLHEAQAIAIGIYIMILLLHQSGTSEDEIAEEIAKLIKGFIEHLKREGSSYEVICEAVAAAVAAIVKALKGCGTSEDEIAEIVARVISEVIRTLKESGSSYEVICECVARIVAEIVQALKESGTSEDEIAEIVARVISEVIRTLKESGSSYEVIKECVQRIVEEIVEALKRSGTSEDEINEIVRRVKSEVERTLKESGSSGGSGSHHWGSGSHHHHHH
Put plainly: SEC binding assay (Superdex 200, normalised A230) of A, B and the mixture AB. On the procedure:
(§1) Complexes and individual components were diluted in 20 mM Tris pH 8.0, 100 mM NaCl. After o/n equilibration of the mixtures at room temperature or 4 degrees C., 500 ul of sample was injected onto a Superdex™ 200 10/300 increase GL (dimers, linear assemblies) or Superose™ 6 increase 10/300 GL (symmetric assemblies) (all columns from GE healthcare) using the absorbance at 230 nm or 473 nm (for GFP tagged components) as read-out. Dimers were mixed at monomer concentrations of 5 μM or higher. Trimer and ABCD tetramer mixtures contained 5 μM of the bivalent connector, and 7.5 μM of each terminal cap (lower absolute concentrations with the same ratios were used for some trimers). ABCA tetramer mixtures contained 5 μM per bivalent connector and 15 μM terminal cap. The hexamer mixture contained 3 μM of components C and D, 3.6 μM of B and E, and 4.4 μM of A and F. The branched assembly shown in FIG. 4A contained 2.8 μM of the trivalent connector and 4 μM of each cap. For the exchange experiment shown in FIG. 5A, the ABC trimer was preincubated at concentrations of 6 μM B and 9 μM each of A and C. C′ was then added to reach a final concentration of 2 μM B, 3 μM each of A and C, and 6 μM C′.

Series [1] deals with the molecule itself. Put plainly: SEC titration of the C4 hub alone (normalised A230, concentrations per monomer) and negative-stain EM; self-association of hubs.
Another series concerns the target T2, LHD101 B8.
T2 single chain, LHD101 chain B fused to DHR8: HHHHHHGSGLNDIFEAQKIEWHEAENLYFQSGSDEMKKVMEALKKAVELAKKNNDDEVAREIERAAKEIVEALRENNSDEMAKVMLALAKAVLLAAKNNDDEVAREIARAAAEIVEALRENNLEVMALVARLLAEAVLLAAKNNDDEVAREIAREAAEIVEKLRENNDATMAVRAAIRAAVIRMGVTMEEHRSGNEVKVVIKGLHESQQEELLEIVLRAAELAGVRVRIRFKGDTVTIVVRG
Kind of series: SEC binding assay (Superdex 200, normalised A230) of A, B and the mixture AB. Here is the method: as §1

For another series, the target named is T3, 101B14.
T3 construct: also called LHD101 B14
T3 single chain, LHD101 chain B fused to DHR14: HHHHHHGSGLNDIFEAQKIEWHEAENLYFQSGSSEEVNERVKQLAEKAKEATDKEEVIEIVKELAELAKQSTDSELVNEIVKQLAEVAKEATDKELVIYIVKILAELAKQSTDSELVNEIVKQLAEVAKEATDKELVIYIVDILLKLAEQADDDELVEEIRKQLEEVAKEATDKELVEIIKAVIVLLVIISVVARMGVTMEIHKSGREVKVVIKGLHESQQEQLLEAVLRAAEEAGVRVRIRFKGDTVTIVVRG
The series is described as above. Here is the method: as §1

The next series has as its target T4, 101B4.
T4 construct: also called LHD101B4
T4 chain: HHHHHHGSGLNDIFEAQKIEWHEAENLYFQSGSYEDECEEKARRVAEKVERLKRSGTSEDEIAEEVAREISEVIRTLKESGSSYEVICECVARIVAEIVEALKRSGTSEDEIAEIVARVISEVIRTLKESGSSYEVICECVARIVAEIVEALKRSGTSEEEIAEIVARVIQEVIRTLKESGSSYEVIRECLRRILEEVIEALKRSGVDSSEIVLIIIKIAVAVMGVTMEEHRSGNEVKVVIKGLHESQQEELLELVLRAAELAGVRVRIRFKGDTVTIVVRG
Described as above. Here is the method:
as §1

The target of the next series is T5, 101B62.
T5 construct: also called LHD101B62
T5 chain: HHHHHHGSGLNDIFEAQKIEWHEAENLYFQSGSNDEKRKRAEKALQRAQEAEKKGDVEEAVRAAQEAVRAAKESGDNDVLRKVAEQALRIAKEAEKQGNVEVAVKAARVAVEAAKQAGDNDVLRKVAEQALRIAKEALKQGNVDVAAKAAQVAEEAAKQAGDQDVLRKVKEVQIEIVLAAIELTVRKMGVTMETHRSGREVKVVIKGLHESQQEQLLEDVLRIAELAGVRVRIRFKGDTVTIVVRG
The series is described as above. On the procedure:
as §1

In a further series the target is T6, 101B82.
T6 chain: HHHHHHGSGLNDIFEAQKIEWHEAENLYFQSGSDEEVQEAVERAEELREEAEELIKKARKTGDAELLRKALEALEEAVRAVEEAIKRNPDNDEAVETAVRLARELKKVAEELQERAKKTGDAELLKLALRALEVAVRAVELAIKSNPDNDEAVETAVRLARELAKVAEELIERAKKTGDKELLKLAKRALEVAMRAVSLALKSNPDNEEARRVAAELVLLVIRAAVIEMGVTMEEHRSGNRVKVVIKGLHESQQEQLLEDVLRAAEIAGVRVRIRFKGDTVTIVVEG
Described as above. On the procedure: as §1

In the next series the target is T7, LHD101 chainB.
T7 construct: also called LHD101B
T7 chain: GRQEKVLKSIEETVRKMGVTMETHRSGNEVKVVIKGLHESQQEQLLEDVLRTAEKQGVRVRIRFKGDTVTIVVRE
Put plainly: BLI steady-state titration, biotinylated unfused LHD101B on a streptavidin sensor. Here is the method:
(§2) Biolayer interferometry experiments were performed on an OctetRED96 BLI system (ForteBio, Menlo Park, CA). Streptavidin coated biosensors were first equilibrated for at least 10 minutes in Octet buffer (10 mM HEPES pH 7.4, 150 mM NaCl, 3 mM EDTA, 0.05% Surfactant P20) supplemented with 1 mg/ml Bovine Serum Albumin (SigmaAldrich). Enzymatically biotinylated designs were immobilized onto the biosensors by dipping the biosensors into a solution with 10-50 nM protein for 30-120 s. This was followed by dipping in fresh octet buffer to establish a baseline for 120 s. Titration experiments were performed at 25° C. while rotating at 1,000 r.p.m. Association of designs was allowed by dipping biosensors in solutions containing designed protein diluted in octet buffer until equilibrium was approached followed by dissociation by dipping the biosensors into fresh buffer solution in order to monitor the dissociation kinetics. Steady-state and global kinetic fits were performed using the manufacturer's software (Data Analysis 9.1) assuming a 1:1 binding model.

Series [2] concerns the molecule itself. Kind of series: SEC titration of the protomer alone at several injection concentrations (Superdex 200, normalised A230); self-association.
In series [3] the target is T8, LHD29 chainB.
T8 construct: also called LHD29B; 29B
T8 chain: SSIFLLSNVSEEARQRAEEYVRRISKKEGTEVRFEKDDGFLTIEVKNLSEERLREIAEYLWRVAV
Kind of series: BLI, steady state fit. Here is the method:
as §2

Series [4] concerns the molecule itself. Kind of series: BLI conditions (self-association).
Series [5] has as its target T8, LHD29 chainB. Kind of series: BLI, global kinetic fit, 1:1 model. Here is the method:
as §2
In general terms: BLI is a label-free optical method that tracks binding on a fibre tip over time.

The target in another series is T9, DF206.
T9 construct: Bivalent connector
T9 chain: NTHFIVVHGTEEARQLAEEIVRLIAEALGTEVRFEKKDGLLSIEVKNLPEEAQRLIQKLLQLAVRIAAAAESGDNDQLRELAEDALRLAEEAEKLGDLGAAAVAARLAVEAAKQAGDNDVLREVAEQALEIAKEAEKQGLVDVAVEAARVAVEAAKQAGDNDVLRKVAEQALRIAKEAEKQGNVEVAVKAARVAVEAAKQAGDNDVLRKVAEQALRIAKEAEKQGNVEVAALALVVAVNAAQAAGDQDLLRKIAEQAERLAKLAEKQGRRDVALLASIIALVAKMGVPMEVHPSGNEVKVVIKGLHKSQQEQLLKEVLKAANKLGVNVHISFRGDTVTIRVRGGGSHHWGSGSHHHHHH
Put plainly: SEC of mixed components; trimer listed in Table 6.

The next series concerns the target T10, LHD206 B62-1.
T10 single chain, LHD206 chain B fused to DHR62: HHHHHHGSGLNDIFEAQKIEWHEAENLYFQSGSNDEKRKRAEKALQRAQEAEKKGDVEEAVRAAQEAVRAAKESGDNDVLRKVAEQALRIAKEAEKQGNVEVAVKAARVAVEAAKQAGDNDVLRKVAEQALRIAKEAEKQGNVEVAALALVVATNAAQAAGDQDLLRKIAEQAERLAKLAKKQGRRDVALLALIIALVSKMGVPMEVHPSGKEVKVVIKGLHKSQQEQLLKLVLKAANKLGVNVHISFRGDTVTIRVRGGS
Put plainly: SEC binding assay (Superdex 200, normalised A230) of A, B and the mixture AB. On the procedure:
as §1

For another series, the target named is T11, 206B62-2.
T11 chain: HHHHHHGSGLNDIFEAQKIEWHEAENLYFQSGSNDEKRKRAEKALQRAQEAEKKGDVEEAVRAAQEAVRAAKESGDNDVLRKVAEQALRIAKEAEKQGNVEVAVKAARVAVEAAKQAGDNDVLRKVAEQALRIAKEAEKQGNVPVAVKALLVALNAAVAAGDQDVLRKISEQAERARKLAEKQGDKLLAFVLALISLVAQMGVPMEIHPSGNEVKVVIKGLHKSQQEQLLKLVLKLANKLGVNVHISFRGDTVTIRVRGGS
Described as above. On the procedure: as §1

B1: 284A82 (designed binder)
chain: HHHHHHGSGLNDIFEAQKIEWHEAENLYFQSGSDEEVQEAVERAEELREEAEELIKKARKTGDAELLRKALEALEEAVRAVEEAIKRNPDNDEAVETAVRLARELKKVAEELQERAKKTGDAELLKLALRALEVAVRAVELAIKSNPDNDEAVETAVRLAKELLKVAILLAKRAQETGDKELEKLARRALEVAKRAVELAIKSNPDNKEARILKLLLELAELLIELALRGTIIIVEVHINGERQTKYLILAPVEELLKHLERIEEKIKREGASEVEVKVTSGGTTWTFNIKGS
notes: also called LHD284 A DHR82 N
In the case of B1, the binding result with 284B was “binds”.

B2: C4-Hub (designed binder)
chain: GNTHFIVVHGSEDAAQLAEELVREISKKEGTEVRFEKKDGLLSIEVKNLSEERQREIQKALQLVQDVANAERVVRERPGSNLAKKALEIILRAAEELAKLDLKASLKAAVRAAEKVVREQPGSELAKKALEIILRAAEELAKLPDPEALHEAVRAAEHVVRSQPGSEAAKEALRIIQEAAELLKESPDPTAIIRAARALLKIARTTGDEEAAKEAIEAAKKAADLARERGDDELVCEALALLVAAQVELLKQQGTSAVEIAKIVARVISEVIRTLKEKGSSYEVICECVARIVAEIVEALKRSGTSAAIIALIVALVISEVIRTLKESGSSFEVILECVIRIVLEIIEALKRSGTSEQDVMLIVMAVLLVVLATLQLSGSGSLEHHHHHH
notes: C4-symmetric homo-oligomeric hub carrying LHD274B; also called C4 53; C4-symmetric hub
As for B2, the binding result in series [1] is “binds”.

B3: 101A21 (designed binder)
chain: HHHHHHGSGLNDIFEAQKIEWHEAENLYFQSGSSEKEKVEELAQRIREQLPDTELAREAQELADEARKSDDSEALKVVYLALRIVQQLPDTELAREALELAKEAVKSTDSEKLKVVYLALRVVQQLPDTEEARKALEIAKEAVKADAQILLAIARAVLKMGVEMEVHPSGNEVKVVIKGLHIKQQRQLYRDVREAAKKAGVEVEIEVEGDTVTIVVRE
As to B3, the binding result in the series with LHD101 B8, with 101B14, with 101B4, in the series with 101B62, in the series with 101B82 and in the series with LHD101 chainB was “binds” throughout. Besides, the binding result in series [2] is “no binding”.

B4: LHD29 chainA (designed binder)
chain: TWQWVLINISEEARQRIEEYVRRISKKEGTEVHFEKDDGVLHIRVKNLHEKRAREIHEYAKRVIL
notes: also called LHD29A; 29A
Regarding B4, in the series with LHD29 chainB [3], the affinity, expressed as Kd, was 310 nM. Further, the binding result in series [4] was “binds”. For the same molecule, in the series with LHD29 chainB [5], the Kd came out at 985 nM, the koff stood at 0.00068 s⁻¹ and the kon was found to be 690 M⁻¹ s⁻¹.

B5: 206A54 (designed binder)
chain: HHHHHHGSGLNDIFEAQKIEWHEAENLYFQSGSTEDERRELEKVARKAIEAAREGNTDEVREQLQRALEIARESGTTEAVKLALEVVARVAIEAARRGNTDAVREALEVALEIARESGTTEAVKLALEVVARVAIEAARRGNTDAVREALAVAVKIALKSGTEEAFRLAKEVIKRVSDEAKKQGNEDAVKEAESFDAAAELILSLLKLFRELHERGTEIVVEVHINGRKTEIEVQGIDKRLLQIILEVIIEEIAREGPDKVEVNVHSGGQTWTFRYGGS
As to B5, the binding result with DF206, with LHD206 B62-1 and with 206B62-2 was “binds” each time.
